Measurements from the supplement of paper PMC9732359.
± gives the uncertainty stated by the source.

Test: protein stability index of a GFP-peptide fusion (yeast GPS) (PSI 1-4); higher = more stable; sorted into four equal gates, so the index is relative within each strain
Procedure, shortened: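 For each peptide, the protein stability index sums the read frequency in every gate after multiplying it by the gate number. Read frequencies came from plasmids that were PCR-amplified from each gate and Illumina-sequenced, with reads assigned to strains by barcodes. The gates were four equal bins of GFP/Cherry fluorescence ratio applied to mid-log yeast in leucine-free medium carrying a pooled library of tiled 17-residue yeast protein peptides fused downstream of GFP on a Cherry-expressing plasmid.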

Sequence | protein stability index (doa10∆) | protein stability index (pdr5∆) | protein stability index (san1∆) | protein stability index (ubr1∆)
IYSSDAQGDPNLEPLIA [NUT1] | 3.36 ± 0.14 | 3.12 ± 0.096 | 3.04 ± 0.065 | 3.35 ± 0.1
DFRTRYIDIRTNNVLRK [MTW1] | 2.45 ± 0.087 | 2.86 ± 0.21 | 2.43 ± 0.27 | 2.66 ± 0.14
KRNKYAAMLTSENAREI [RRP45] | 3.04 ± 0.063 | 3.1 ± 0.063 | 3.08 ± 0.057 | 2.96 ± 0.043
ELKYQRSLRATAEERVG [RPL15A] | 1.27 ± 0.083 | 1.48 ± 0.11 | 1.67 ± 0.19 | 1.09 ± 0.054
TCQILESGEDEAEFSLR [RRP46] |  | 2.62 ± 0.28 |  | 3.46 ± 0.19
SNEFVPNTSDNNNNSNN [SWI1] | 2.59 ± 0.1 | 2.79 ± 0.11 | 2.71 ± 0.095 | 2.88 ± 0.066
LNTFGSKICLSHFSLDQ [ITC1] | 2.48 ± 0.06 | 2.18 ± 0.042 | 2.09 ± 0.095 | 2.33 ± 0.039
GTSQNYGTATADDADIE [MED1] | 3.22 ± 0.071 | 3.29 ± 0.073 | 3.08 ± 0.058 | 3.24 ± 0.061
VGGCKDQIEKLREVVEL [RPT1] | 3.37 ± 0.071 | 3.4 ± 0.063 | 3.4 ± 0.048 | 3.33 ± 0.061
ARNLYIIAVKGSGSRLN [RPL23A] | 1.27 ± 0.041 | 1.19 ± 0.044 | 1.22 ± 0.088 | 1.35 ± 0.042
CHSKLRGQQVENPTDNF [GRR1] | 2.86 ± 0.22 |  |  | 
QVGERIKQTFKNDLFVI [RPO21] | 2.38 ± 0.066 | 2.36 ± 0.07 | 2.56 ± 0.06 | 2.49 ± 0.064
TEKLKISPESVFGTLGE [SMC3] | 1.99 ± 0.087 | 2.34 ± 0.066 | 2.09 ± 0.095 | 1.99 ± 0.032
FYKLNMPDEFNTLYTAI [SRP72] | 2.5 ± 0.05 | 2.64 ± 0.053 | 2.66 ± 0.034 | 2.65 ± 0.043
MSRSLANGIINVKEITE [SMC3] | 2.63 ± 0.092 | 2.8 ± 0.073 | 2.77 ± 0.12 | 2.87 ± 0.064
SFQKIPLSRINENENFG [YML103C/NUP188] | 2.88 ± 0.15 | 3.12 ± 0.097 | 2.97 ± 0.079 | 3.24 ± 0.1
QFMKRFPMPYENEEFIT [ECM29] | 2.88 ± 0.062 | 2.83 ± 0.094 | 2.85 ± 0.083 | 
DRLSLQDRQQLLPLVVS [ECM29] | 2 ± 0.051 | 2.06 ± 0.044 | 1.64 ± 0.08 | 1.84 ± 0.037
EHAKWGPAAAIEFEYDP [RPB3] | 2.54 ± 0.078 | 3.01 ± 0.074 | 2.36 ± 0.07 | 3.09 ± 0.075
KYYIVSSSKSMINDENY [SRB8] | 2.91 ± 0.073 | 2.76 ± 0.056 | 2.43 ± 0.083 | 2.81 ± 0.04
KIATRGVMLWKEFDETI [FAS1] | 3.02 ± 0.22 | 2.94 ± 0.22 |  | 2.94 ± 0.15
NEPLSEIEIEGVMSLLQ [YAR002W/NUP60] | 3.31 ± 0.093 | 3.32 ± 0.14 | 3.22 ± 0.11 | 3.19 ± 0.094
AFETHYRRLFAKRLIHG [CDC53] | 2.46 ± 0.076 | 2.54 ± 0.071 | 2.8 ± 0.09 | 2.89 ± 0.071
QPGYADLEHKEDCVEEF [QCR6] | 2.42 ± 0.058 | 2.56 ± 0.068 | 2.52 ± 0.074 | 2.68 ± 0.044
QTQAIAQQQQLSNYPQQ [YGR119C/NUP57] | 2.79 ± 0.058 | 3.15 ± 0.062 | 2.58 ± 0.048 | 2.97 ± 0.046
NVFGQDNEDSDNLFGET [SWI3] | 3.37 ± 0.13 | 3.7 ± 0.13 | 3.23 ± 0.12 | 3.5 ± 0.094

Sequence | protein stability index (doa10∆) | protein stability index (pdr5∆) | protein stability index (san1∆) | protein stability index (ubr1∆)
ASIGQAAEQQSKAFKES [SRP54] | 3.45 ± 0.19 | 3.33 ± 0.17 | 3.14 ± 0.096 | 3.16 ± 0.082
VHDLNKYKSNTNNMEKI [SMC2] | 3.46 ± 0.17 | 3.58 ± 0.14 | 3.02 ± 0.15 | 3.47 ± 0.24
TNKSKRPSITEAMMLKE [MED1] | 2.91 ± 0.12 | 3.03 ± 0.087 | 2.89 ± 0.094 | 3.03 ± 0.084
TRPLTLSHGSLEHVLLV [FAS1] | 2.39 ± 0.068 | 2.72 ± 0.076 | 2.67 ± 0.068 | 3.12 ± 0.065
EDCDLVIMALMLMSKIG [POP5] | 1.46 ± 0.038 | 1.89 ± 0.053 | 1.81 ± 0.069 | 2.32 ± 0.037
NWRSFNAKIIDAEVAQF [SRP68] | 2.53 ± 0.071 | 2.56 ± 0.048 | 2.01 ± 0.073 | 2.43 ± 0.098
GSYGSLLRFNGVERLIP [PRE4] | 2 ± 0.064 | 2.44 ± 0.069 | 2.04 ± 0.12 | 2.22 ± 0.12
ITQDGKFAYKIDKITDG [YMR129W/POM152] | 2.9 ± 0.087 | 3.03 ± 0.073 | 2.81 ± 0.063 | 2.85 ± 0.051
KLDENNAQLSCITKQDG [PUP2] | 2.79 ± 0.12 | 3.13 ± 0.087 | 3.11 ± 0.098 | 3.06 ± 0.088
FFLRDTLLWNKNDKLIK [SNF5] | 2.4 ± 0.062 | 2.04 ± 0.059 | 2.06 ± 0.067 | 2.42 ± 0.027
YARFKNDFFPGEVVYLR [ITC1] | 3.29 ± 0.083 | 1.99 ± 0.069 | 2.58 ± 0.1 | 3.22 ± 0.091
KFSSRHGQKGVCGIIVK [RET1] | 3.56 ± 0.095 | 3.51 ± 0.092 | 3.71 ± 0.051 | 3.14 ± 0.12
TSHYQNYHPNASITPYK [RPN4] | 2.84 ± 0.081 | 3.11 ± 0.074 | 2.94 ± 0.055 | 2.89 ± 0.063
QEELKKRQELEEASQQQ [MED2] | 2.96 ± 0.058 | 3.2 ± 0.076 | 2.47 ± 0.071 | 3.29 ± 0.046
NIIASPLSAGFNYGKLP [SIN4] | 2.62 ± 0.079 | 2.72 ± 0.086 | 2.68 ± 0.048 | 2.54 ± 0.076
KYLDQVLDHQRAIPFRR [RPL17B] | 2.78 ± 0.12 | 2.35 ± 0.076 | 1.87 ± 0.13 | 1.61 ± 0.066
YILEAEAAAKEKDELDN [QCR7] | 3.1 ± 0.24 | 3.11 ± 0.11 | 3.1 ± 0.14 | 3.18 ± 0.079
FSSSVSLSYMAFPNASK [RRP40] | 1.65 ± 0.078 | 1.76 ± 0.074 | 1.65 ± 0.12 | 1.72 ± 0.072
IVMVWLKENTYVMERPK [YDL116W/NUP84] | 1.46 ± 0.064 | 1.81 ± 0.06 | 1.43 ± 0.14 | 1.4 ± 0.056
DTEMKMKSLLTELSNKE [YIL149C/MLP2] | 3.31 ± 0.065 | 3.44 ± 0.058 | 3.21 ± 0.045 | 3.35 ± 0.049
PQINILQPIKGESARRF [RPC40] | 2.17 ± 0.096 | 2.58 ± 0.1 | 2.43 ± 0.12 | 2.88 ± 0.12
TPGELVTDDPIWMRGHG [RRP4] | 2.65 ± 0.19 | 2.9 ± 0.13 |  | 3.14 ± 0.15
TPKGNESEQELSLHTGF [MTR3] | 3.22 ± 0.11 | 3.13 ± 0.1 | 3.18 ± 0.12 | 3.17 ± 0.061
VGRQDPKKHLSETADET [RPN11] | 3.17 ± 0.078 | 2.96 ± 0.09 | 3.51 ± 0.066 | 2.92 ± 0.078
TTTMLQLFSTFDRLNGN [SSN2] | 3.08 ± 0.076 | 3.12 ± 0.073 | 3.28 ± 0.055 | 3.02 ± 0.041
YEYGAVSVLLISKDCSA [BRR2] | 2.12 ± 0.047 | 1.97 ± 0.043 | 1.91 ± 0.081 | 1.81 ± 0.041
